Measurements as given in paper PMC3683929.

Key:
MBP-hnRNP A1 [1] = biological target: T1, MBP-hnRNP A1 (mouse, UniProt P49312 1-320); test: EMSA
MBP-hnRNP A1 [2] = biological target: T1, MBP-hnRNP A1; test: fluorescence polarization
MBP-hnRNP A1 [3] = biological target: T1, MBP-hnRNP A1; test: FP/EMSA

T1 sequence (P49312 whole entry): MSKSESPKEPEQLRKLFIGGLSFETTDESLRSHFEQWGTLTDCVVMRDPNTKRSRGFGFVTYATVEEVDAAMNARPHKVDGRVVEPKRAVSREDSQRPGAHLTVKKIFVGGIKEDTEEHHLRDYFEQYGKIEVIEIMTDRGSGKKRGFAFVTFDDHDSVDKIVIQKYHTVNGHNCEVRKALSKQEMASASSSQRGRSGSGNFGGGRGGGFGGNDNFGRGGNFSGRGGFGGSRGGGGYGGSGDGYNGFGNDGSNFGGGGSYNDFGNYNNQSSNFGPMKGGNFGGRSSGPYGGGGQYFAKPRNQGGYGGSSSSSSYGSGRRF

Row | Binder | binding result (MBP-hnRNP A1 [1]) | Kd (MBP-hnRNP A1 [1]) | Kd (MBP-hnRNP A1 [2]) | binding result (MBP-hnRNP A1 [3])
1 | AGGUAAGUUC (ssRNA) [Mag 10 nt G4A] | no binding |  |  | 
2 | AGGUAGGUUC (ssRNA) [Mag 10 nt wt (-2 to 8)] |  | 145 ± 12 nM |  | 
3 | GGAGGUAGGUUUCGG (structured_RNA) [Mag 15 nt U7U8 (U8U9 in Table 1)] |  | 171 ± 48 nM | 92 ± 37 nM | 
4 | GGAGGUAGGUAACGG (structured_RNA) [Mag 15 nt A7A8 (A8A9 in Table 1)] |  | 106 ± 23 nM | 21 ± 4 nM | 
5 | GGAGGUAGGUGGCGG (structured_RNA) [Mag 15 nt G7G8 (G8G9 in Table 1)] |  | 70 ± 21 nM | 60 ± 18 nM | 
6 | GAGCCCCAGGAGGUAGGUUCCGGGGGCCU (structured_RNA) [Mag exon 12 5'ss rat wt 29 nt (-12 to 17)] |  |  |  | no binding
